# Experimental data reported in the supplement of paper PMC10065799, “High-throughput profiling of sequence recognition by tyrosine kinases and SH2 domains using bacterial peptide display” (eLife, 2023).
# Biological target: Hck (UniProt P08631)
# Assay: phosphorylation enrichment, bacterial display (enrichment ratio); higher = better substrate or ligand; peptides without Tyr show the background
# 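Further: 11-residue human phosphosite peptides and single-mutation variants displayed on the E. coli surface, counted by deep sequencing, each peptide's frequency after selection divided by its frequency in the unselected input library; frequency after pTyr selection over input frequency; kinase dosed for 20-30% of maximal phosphorylation in three min.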
# Sequence of Hck (P08631 whole entry, looked up): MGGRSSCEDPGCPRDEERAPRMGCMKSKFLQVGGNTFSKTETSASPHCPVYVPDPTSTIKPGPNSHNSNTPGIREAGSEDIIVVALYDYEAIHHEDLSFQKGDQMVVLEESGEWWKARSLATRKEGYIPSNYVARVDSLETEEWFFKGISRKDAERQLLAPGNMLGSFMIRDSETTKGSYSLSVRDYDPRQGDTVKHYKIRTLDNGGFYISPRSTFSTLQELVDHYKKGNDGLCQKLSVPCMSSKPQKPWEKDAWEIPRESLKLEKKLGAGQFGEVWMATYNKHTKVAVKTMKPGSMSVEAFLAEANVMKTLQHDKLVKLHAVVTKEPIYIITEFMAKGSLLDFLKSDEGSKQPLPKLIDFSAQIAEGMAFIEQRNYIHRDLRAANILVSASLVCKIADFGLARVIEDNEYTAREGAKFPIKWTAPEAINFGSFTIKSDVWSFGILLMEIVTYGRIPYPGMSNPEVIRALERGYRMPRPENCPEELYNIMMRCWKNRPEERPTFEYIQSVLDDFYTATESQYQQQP
row,Sequence,phosphorylation enrichment
1,HRTLVYGGIFL [FBP1_Y259],3.69
2,AGADGYDYLAP [FOXL2_Y186_G187D],0.903
3,YGSSSSGGAGG [RPA2_Y14_Y14S],0.359
4,QTWKTYVRQQQ [SFI1_Y164],0.402
5,DALDNYVVRGV [PCCA_Y473_I475V],0.394
6,GFAIVYGTIIL [GPR179_Y460],0.502
7,IYRAAYFGVYD [SLC25A4_Y191],5.56
8,CTTSHYNFMCN [TP53_Y234_I232S_YF],0.446
9,LEAVSYSSRFA [RNLS_Y190_YF],0.463
10,FAKTQYPDVYA [CRX_Y63],0.653
11,MSRDVYSTDYY [NTRK2_Y702],1.73
12,QAYSWYQHQRA [NDST1_Y714_R709Q],0.782
13,DGTESYLTVSS [PLK1_Y462],0.443
14,IIWDSYTTNKM [GNB4_Y85],0.506
15,PMDTYYDSTRG [DYNC2H1_Y2231],1.86
16,QSLEPYTKQQL [STAT3_Y640_V637L],0.459
17,DRLASYLDKVP [KRT14_Y129_R134P],0.5
18,TTSQPYRRLCS [USH2A_Y534_C536R],0.286
19,NSFKFYMSDDI [ATRX_Y204_C200S_YF],0.54
20,NGSKGYAFVHF [PABPC5_Y147_YF],0.445
21,APTSGYQEFVH [IL4R_Y575],0.503
22,RQQQDYWLKDV [ANPEP_Y600_I603K],0.322
23,LVRPPYSYLAL [FOXI1_Y126_S129L],0.678
24,NTTIHYNYMCN [TP53_Y234_C229N],0.579
25,ESDFTYSSSFE [SRPK2_Y427_YF],0.752
26,GISDEYHVIRR [GCDH_Y398_H403R],1.5
27,QMEKICTQQIQ [CCNB1IP1_Y125_Y125C],0.409
28,RFLRGYRQYAY [HLA-A_Y137_D140Y],0.634
29,DLVRPYVHKIL [SF3B1_Y570],0.449

# Biological target: Jak2 (UniProt O60674)
# Sequence (O60674 whole entry, looked up): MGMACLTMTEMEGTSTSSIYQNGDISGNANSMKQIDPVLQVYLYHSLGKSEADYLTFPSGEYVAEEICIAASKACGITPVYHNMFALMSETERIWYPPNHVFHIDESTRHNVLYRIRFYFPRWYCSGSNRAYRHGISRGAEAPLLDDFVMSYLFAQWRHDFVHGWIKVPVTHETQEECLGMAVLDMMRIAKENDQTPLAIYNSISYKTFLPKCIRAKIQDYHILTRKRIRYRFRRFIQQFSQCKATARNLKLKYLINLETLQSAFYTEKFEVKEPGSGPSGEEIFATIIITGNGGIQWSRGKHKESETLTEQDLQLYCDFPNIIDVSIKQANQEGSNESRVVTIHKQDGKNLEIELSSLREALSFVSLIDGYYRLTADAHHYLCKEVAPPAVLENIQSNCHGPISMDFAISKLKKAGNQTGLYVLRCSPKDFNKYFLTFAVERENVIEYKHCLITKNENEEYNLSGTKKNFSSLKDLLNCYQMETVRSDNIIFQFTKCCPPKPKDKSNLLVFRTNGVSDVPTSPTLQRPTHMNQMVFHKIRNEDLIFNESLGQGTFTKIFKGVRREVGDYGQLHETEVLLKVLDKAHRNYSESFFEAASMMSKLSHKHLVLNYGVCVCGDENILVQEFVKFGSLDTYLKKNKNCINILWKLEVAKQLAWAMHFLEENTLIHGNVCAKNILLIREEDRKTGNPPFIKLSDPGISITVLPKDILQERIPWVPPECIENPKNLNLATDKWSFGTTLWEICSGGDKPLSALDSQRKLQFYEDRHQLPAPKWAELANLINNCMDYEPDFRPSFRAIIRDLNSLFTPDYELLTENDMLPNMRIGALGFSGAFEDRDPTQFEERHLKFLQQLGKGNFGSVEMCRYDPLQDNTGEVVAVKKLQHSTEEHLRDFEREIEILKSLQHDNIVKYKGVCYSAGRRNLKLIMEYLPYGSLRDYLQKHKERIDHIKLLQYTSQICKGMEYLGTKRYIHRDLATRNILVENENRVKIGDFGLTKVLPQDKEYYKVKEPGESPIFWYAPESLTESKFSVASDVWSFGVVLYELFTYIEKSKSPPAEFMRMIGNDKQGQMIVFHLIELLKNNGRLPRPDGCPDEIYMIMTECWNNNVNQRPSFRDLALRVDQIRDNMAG
# Assay: as above
row,Sequence,phosphorylation enrichment
1,HRTLVYGGIFL [FBP1_Y259],1.07
2,AGADGYDYLAP [FOXL2_Y186_G187D],0.997
3,YGSSSSGGAGG [RPA2_Y14_Y14S],0.392
4,QTWKTYVRQQQ [SFI1_Y164],0.766
5,DALDNYVVRGV [PCCA_Y473_I475V],0.793
6,GFAIVYGTIIL [GPR179_Y460],1.28
7,IYRAAYFGVYD [SLC25A4_Y191],0.982
8,CTTSHYNFMCN [TP53_Y234_I232S_YF],0.884
9,LEAVSYSSRFA [RNLS_Y190_YF],0.564
10,FAKTQYPDVYA [CRX_Y63],0.52
11,MSRDVYSTDYY [NTRK2_Y702],0.788
12,QAYSWYQHQRA [NDST1_Y714_R709Q],1.1
13,DGTESYLTVSS [PLK1_Y462],0.845
14,IIWDSYTTNKM [GNB4_Y85],0.873
15,PMDTYYDSTRG [DYNC2H1_Y2231],1.14
16,QSLEPYTKQQL [STAT3_Y640_V637L],0.48
17,DRLASYLDKVP [KRT14_Y129_R134P],0.883
18,TTSQPYRRLCS [USH2A_Y534_C536R],0.355
19,NSFKFYMSDDI [ATRX_Y204_C200S_YF],1.12
20,NGSKGYAFVHF [PABPC5_Y147_YF],0.825
21,APTSGYQEFVH [IL4R_Y575],0.611
22,RQQQDYWLKDV [ANPEP_Y600_I603K],1.25
23,LVRPPYSYLAL [FOXI1_Y126_S129L],2.16
24,NTTIHYNYMCN [TP53_Y234_C229N],0.817
25,ESDFTYSSSFE [SRPK2_Y427_YF],1.02
26,GISDEYHVIRR [GCDH_Y398_H403R],0.719
27,QMEKICTQQIQ [CCNB1IP1_Y125_Y125C],1.24
28,RFLRGYRQYAY [HLA-A_Y137_D140Y],4.7
29,DLVRPYVHKIL [SF3B1_Y570],0.55

# Biological target: MERTK (UniProt Q12866)
# Sequence (Q12866 whole entry, looked up): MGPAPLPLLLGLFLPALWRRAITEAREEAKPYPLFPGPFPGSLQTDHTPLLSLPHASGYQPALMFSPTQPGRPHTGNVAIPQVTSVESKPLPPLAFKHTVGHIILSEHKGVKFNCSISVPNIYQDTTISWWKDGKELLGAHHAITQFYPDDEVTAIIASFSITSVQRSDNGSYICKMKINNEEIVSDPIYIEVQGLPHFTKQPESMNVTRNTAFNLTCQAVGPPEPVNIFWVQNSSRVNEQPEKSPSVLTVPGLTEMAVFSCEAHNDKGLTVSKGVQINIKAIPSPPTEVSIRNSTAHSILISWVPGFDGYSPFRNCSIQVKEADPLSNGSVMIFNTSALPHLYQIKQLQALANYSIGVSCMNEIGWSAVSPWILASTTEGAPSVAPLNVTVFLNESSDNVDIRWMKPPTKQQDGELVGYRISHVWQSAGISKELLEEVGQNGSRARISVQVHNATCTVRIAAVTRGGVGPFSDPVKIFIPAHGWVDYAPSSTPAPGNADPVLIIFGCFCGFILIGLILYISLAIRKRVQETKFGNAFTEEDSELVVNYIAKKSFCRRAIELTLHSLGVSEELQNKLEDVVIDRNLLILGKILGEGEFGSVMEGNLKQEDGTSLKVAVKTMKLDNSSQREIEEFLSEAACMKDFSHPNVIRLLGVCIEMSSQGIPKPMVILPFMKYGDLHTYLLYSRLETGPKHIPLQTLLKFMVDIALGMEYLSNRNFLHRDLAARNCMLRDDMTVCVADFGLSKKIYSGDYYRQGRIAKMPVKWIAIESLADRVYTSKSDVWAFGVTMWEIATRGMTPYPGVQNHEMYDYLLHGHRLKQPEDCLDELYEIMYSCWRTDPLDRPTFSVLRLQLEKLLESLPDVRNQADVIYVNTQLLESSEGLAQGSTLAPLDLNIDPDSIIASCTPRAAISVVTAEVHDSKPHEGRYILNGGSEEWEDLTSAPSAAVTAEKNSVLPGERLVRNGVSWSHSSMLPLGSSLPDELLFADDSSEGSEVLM
# Assay: as above
row,Sequence,phosphorylation enrichment
1,HRTLVYGGIFL [FBP1_Y259],0.532
2,AGADGYDYLAP [FOXL2_Y186_G187D],0.647
3,YGSSSSGGAGG [RPA2_Y14_Y14S],0.355
4,QTWKTYVRQQQ [SFI1_Y164],0.456
5,DALDNYVVRGV [PCCA_Y473_I475V],0.37
6,GFAIVYGTIIL [GPR179_Y460],0.389
7,IYRAAYFGVYD [SLC25A4_Y191],1.26
8,CTTSHYNFMCN [TP53_Y234_I232S_YF],0.455
9,LEAVSYSSRFA [RNLS_Y190_YF],0.399
10,FAKTQYPDVYA [CRX_Y63],0.346
11,MSRDVYSTDYY [NTRK2_Y702],5.06
12,QAYSWYQHQRA [NDST1_Y714_R709Q],3.85
13,DGTESYLTVSS [PLK1_Y462],0.387
14,IIWDSYTTNKM [GNB4_Y85],0.401
15,PMDTYYDSTRG [DYNC2H1_Y2231],0.827
16,QSLEPYTKQQL [STAT3_Y640_V637L],0.304
17,DRLASYLDKVP [KRT14_Y129_R134P],0.495
18,TTSQPYRRLCS [USH2A_Y534_C536R],0.316
19,NSFKFYMSDDI [ATRX_Y204_C200S_YF],0.497
20,NGSKGYAFVHF [PABPC5_Y147_YF],0.444
21,APTSGYQEFVH [IL4R_Y575],0.426
22,RQQQDYWLKDV [ANPEP_Y600_I603K],0.52
23,LVRPPYSYLAL [FOXI1_Y126_S129L],2.78
24,NTTIHYNYMCN [TP53_Y234_C229N],0.574
25,ESDFTYSSSFE [SRPK2_Y427_YF],0.438
26,GISDEYHVIRR [GCDH_Y398_H403R],0.457
27,QMEKICTQQIQ [CCNB1IP1_Y125_Y125C],0.461
28,RFLRGYRQYAY [HLA-A_Y137_D140Y],0.846
29,DLVRPYVHKIL [SF3B1_Y570],0.504

# System: c-Abl (mouse)
# Assay: as above
row,Sequence,phosphorylation enrichment
1,HRTLVYGGIFL [FBP1_Y259],1.06
2,AGADGYDYLAP [FOXL2_Y186_G187D],0.655
3,YGSSSSGGAGG [RPA2_Y14_Y14S],0.317
4,QTWKTYVRQQQ [SFI1_Y164],0.673
5,DALDNYVVRGV [PCCA_Y473_I475V],0.674
6,GFAIVYGTIIL [GPR179_Y460],1.31
7,IYRAAYFGVYD [SLC25A4_Y191],0.955
8,CTTSHYNFMCN [TP53_Y234_I232S_YF],0.613
9,LEAVSYSSRFA [RNLS_Y190_YF],0.596
10,FAKTQYPDVYA [CRX_Y63],0.652
11,MSRDVYSTDYY [NTRK2_Y702],0.558
12,QAYSWYQHQRA [NDST1_Y714_R709Q],0.8
13,DGTESYLTVSS [PLK1_Y462],0.687
14,IIWDSYTTNKM [GNB4_Y85],0.596
15,PMDTYYDSTRG [DYNC2H1_Y2231],1.15
16,QSLEPYTKQQL [STAT3_Y640_V637L],0.498
17,DRLASYLDKVP [KRT14_Y129_R134P],0.621
18,TTSQPYRRLCS [USH2A_Y534_C536R],0.288
19,NSFKFYMSDDI [ATRX_Y204_C200S_YF],0.657
20,NGSKGYAFVHF [PABPC5_Y147_YF],0.755
21,APTSGYQEFVH [IL4R_Y575],0.524
22,RQQQDYWLKDV [ANPEP_Y600_I603K],0.662
23,LVRPPYSYLAL [FOXI1_Y126_S129L],0.757
24,NTTIHYNYMCN [TP53_Y234_C229N],0.707
25,ESDFTYSSSFE [SRPK2_Y427_YF],0.614
26,GISDEYHVIRR [GCDH_Y398_H403R],0.607
27,QMEKICTQQIQ [CCNB1IP1_Y125_Y125C],0.986
28,RFLRGYRQYAY [HLA-A_Y137_D140Y],1.56
29,DLVRPYVHKIL [SF3B1_Y570],0.539
